# B1: FRG monoclonal antibody (anti-Chi3l1) (antibody, IgG2b, V domains shown)
# VH: QIQLVQSGPELKKPGETVKISCKASGYTFTNYGMNWVKQAPGKGLKWMGWINTYTGEPTYADDFKGRFAFSLETSASTAYLQINNLRNEDMSTYFCARLGYGKFYVMDYWGQGTSVTVSS
# VL: DVVMTQTPLSLPVSLGDQASISCRSSQSLVHSNGNTYLHWYLQKPGQSPKLLIYKVSNRFSGVPDRFSGSGSGTDFTLKISRVEAEDLGVYFCSQSTHVTWTFGGGTKLEIK
# notes: The antibody is described as an IgG2b Kappa monoclonal; also called FRG mAb; FRG antibody
# Target: T1, human Chi3l1 (chitinase 3-like-1) (human, UniProt P36222 22-383)
# T1 construct: also called YKL-40; recombinant (r) human Chi3l1
# T1 sequence (P36222 22-383 limits assumed): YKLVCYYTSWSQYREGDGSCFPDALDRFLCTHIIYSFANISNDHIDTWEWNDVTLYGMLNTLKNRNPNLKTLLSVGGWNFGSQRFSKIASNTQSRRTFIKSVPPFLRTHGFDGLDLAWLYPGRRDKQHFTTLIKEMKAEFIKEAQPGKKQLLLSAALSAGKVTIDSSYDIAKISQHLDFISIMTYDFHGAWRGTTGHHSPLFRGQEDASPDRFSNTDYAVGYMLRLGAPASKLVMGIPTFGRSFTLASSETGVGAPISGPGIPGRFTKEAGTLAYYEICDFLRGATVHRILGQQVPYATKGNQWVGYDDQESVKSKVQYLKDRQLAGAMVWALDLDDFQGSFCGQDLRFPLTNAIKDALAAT
# Test: Western blot / ELISA detection of Chi3l1, denaturing and non-denaturing
binder,measurement,value
B1,binding result,binds

# — US20190062457A1 (BROWN UNIVERSITY, published 2019)
